The results in this text go back to US20230365685A1 (SUZHOU NEOLOGICS BIOSCIENCE, published 2023).

One assay deals with T1, cynomolgus TIM-3 (cynomolgus, UniProt A0A2K5U3G7 22-294).
T1 construct: whole, on cells
T1 sequence: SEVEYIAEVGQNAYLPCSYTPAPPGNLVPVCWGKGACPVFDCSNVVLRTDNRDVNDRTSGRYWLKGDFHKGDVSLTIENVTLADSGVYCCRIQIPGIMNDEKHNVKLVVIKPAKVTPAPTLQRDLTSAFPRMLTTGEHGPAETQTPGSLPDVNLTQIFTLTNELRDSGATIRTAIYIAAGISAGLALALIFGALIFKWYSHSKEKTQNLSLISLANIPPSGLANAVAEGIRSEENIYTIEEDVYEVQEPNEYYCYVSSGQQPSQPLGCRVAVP
The assay is described as follows: flow cytometry on 293T cells stably expressing cynomolgus TIM-3, serially diluted antibody, PE-labelled secondary antibody [lower panel].

In assay [1] the target is T2, human TIM-3 recombinant protein (TIM-3-his) (human, UniProt Q8TDQ0 22-202).
T2 construct: also called TIM-3 protein; not shown: His tag
In words: biosensor (HFC sensor, Probe Life): antibody captured, TIM-3-his in solution, 1:1 fit.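 Further: antigen applied as a twofold dilution series, association and dissociation phases recorded, KD obtained as koff divided by kon.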

Protocol for cynomolgus TIM-3: Briefly, serially diluted anti-TIM-3 antibodies were incubated with cell lines stably expressing mouse TIM-3 or cynomolgus TIM-3 (10⁵ cells/well). Then, PE-labelled mouse anti-human IgG antibody (Biolegend) was used as detection antibody. A flow cytometer (Canto II, BD, USA) was used to measure fluorescence.

B1: 39D1 (antibody, V domains shown)
VH: QVQLQQSGAELMKPGASVKISCKATGYTFSSSYWIEWVKQRPGHGLEWIGEILPGSGSINYNEKFKGKATFTADTSSNTVYMQLSSLTSDDSAVYYCARSYYYVMDYWGQGTSVTVSS
VL: QIVLTQSPAIMSASPGEMLTITCSASSSVRFMHWFQQKPGTSPKLWIYSTSNLASGVPARFSGSGSGTSYSLTVSRMEAEDAATYYCQQRSSYPPTFGGGTKLEIK
B1: in the assay with cynomolgus TIM-3, the “EC50 (read off the curve)” value was roughly 0.02 µg/mL. Moreover, in assay [1], the Kd amounted to 1.13 nM, the koff was 0.00141 s⁻¹ and the kon worked out at 1.25e+06 M⁻¹ s⁻¹.

B2: 3F2 (antibody, V domains shown)
VH: EVQLQQSGPELVKTGSSVKISCKASGYSFTGYYMHWVRQSPGKSLEWIGYISCYNGATNYNQKFKGKATFTVDTYSSTAYMQFDSLASEDSAVYYCVRDYYLSVMDYWGQGTSVTVSS
VL: NIMMTQSPSSLAVSAGEKVTMSCKSSQSVLYSSNQKNYLAWYQQKPGQSPKLLIYWASFRESGVPDRFTGSGSGTDFTLTISSVQAEDLAVYYCHQSLSSYTFGGGTKLEIK
B2: the “EC50 (read off the curve)” value with cynomolgus TIM-3 was roughly 0.4 µg/mL. In assay [1], the Kd was 1.11 nM, the koff worked out at 0.00066 s⁻¹ and the kon was found to be 596000 M⁻¹ s⁻¹.
